Assay results from patent US20090286279.

Assays:
[1] = molecular target: sulfo-hirudin ([Leu^1, Thr^2]-hirudin with sulfotyrosine at position 63, expressed in E. coli from pBAD-HirudinTAG) (UniProt P01050)
[2] = molecular target: [Leu^1, Thr^2]-63-desulfo-hirudin (Lepirudin (Refludan)) (UniProt P01050)

human α-thrombin (Diapharma)
thrombin activity (cleavage of fluorogenic substrate Boc-Asp(OBzl)-Pro-Arg-MCA, fluorescence intensity over time) [1]: Cleavage of the fluorogenic substrate by thrombin, whose activity is inhibited to different degrees by sulfo-hirudin and desulfo-hirudin
thrombin activity (cleavage of fluorogenic substrate Boc-Asp(OBzl)-Pro-Arg-MCA, fluorescence intensity over time) [2]: Cleavage of the fluorogenic substrate by thrombin, whose activity is inhibited to different degrees by sulfo-hirudin and desulfo-hirudin
